{"source": "paper PMC7156917", "origin": "cited, not measured here", "key": {"CCR5 (Homo sapiens)": {"target": "CCR5 (Homo sapiens) (UniProt P51681)", "sequence (P51681 whole entry)": "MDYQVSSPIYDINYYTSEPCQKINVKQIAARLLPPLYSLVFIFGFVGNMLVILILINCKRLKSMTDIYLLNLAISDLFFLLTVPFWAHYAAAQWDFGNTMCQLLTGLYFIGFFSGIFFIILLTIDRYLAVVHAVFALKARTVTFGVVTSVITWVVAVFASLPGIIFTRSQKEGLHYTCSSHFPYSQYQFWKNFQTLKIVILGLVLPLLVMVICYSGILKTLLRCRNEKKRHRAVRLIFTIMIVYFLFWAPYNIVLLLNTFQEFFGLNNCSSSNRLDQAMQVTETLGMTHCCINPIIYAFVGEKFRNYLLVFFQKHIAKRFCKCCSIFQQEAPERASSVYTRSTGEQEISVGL", "experiment": "equilibrium binding assay"}, "CXCR4 (Homo sapiens)": {"target": "CXCR4 (Homo sapiens) (UniProt P61073)", "sequence (P61073 whole entry)": "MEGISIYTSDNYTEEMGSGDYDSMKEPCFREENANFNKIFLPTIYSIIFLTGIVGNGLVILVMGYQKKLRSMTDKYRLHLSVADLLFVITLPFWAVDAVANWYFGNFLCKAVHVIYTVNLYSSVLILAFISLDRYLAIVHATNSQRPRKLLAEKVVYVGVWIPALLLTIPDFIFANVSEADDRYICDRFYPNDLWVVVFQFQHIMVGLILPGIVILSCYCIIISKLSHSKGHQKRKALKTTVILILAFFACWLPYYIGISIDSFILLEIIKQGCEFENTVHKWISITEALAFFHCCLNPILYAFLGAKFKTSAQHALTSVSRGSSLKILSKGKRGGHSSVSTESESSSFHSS", "experiment": "SPR"}}, "data": [{"substance": "HIV Env gp120 gp120 (from UniProt O70902)", "values": [{"measurement": "Kd", "setting": "CCR5 (Homo sapiens)", "value": 0.005, "unit": "µM"}, {"measurement": "Kd", "setting": "CXCR4 (Homo sapiens)", "value": 0.5, "unit": "µM"}]}]}
